Experimental data taken from patent publication US20260250341A1.
Where a chain is given by its changes, count along the chain named. In names and notes the source's numbering stands. Values belong to the binder of their own block, whether it stands above or below them.

Columns and labels:
[1] = molecular target: Recombinant Human FGFR1 alpha (IIIc) Fc Chimera Protein (R&D systems, 658-FR-050) (human) (UniProt P11362); assay: ELISA: FGFR1-Fc coated at 0.5 ug/ml, FGF sample at 80 ng/ml, biotinylated anti-FGF antibody BAM233 and streptavidin-HRP, blank subtracted; sample kept 24 h at 37 C
[2] = molecular target: Recombinant Human FGFR1 alpha (IIIc) Fc Chimera Protein (R&D systems, 658-FR-050) (human) (UniProt P11362); assay: ELISA: FGFR1-Fc coated at 0.5 ug/ml, FGF sample at 80 ng/ml, biotinylated anti-FGF antibody BAM233 and streptavidin-HRP, blank subtracted; sample kept 0 h at 37 C
[3] = molecular target: Recombinant Human FGFR1 alpha (IIIc) Fc Chimera Protein (R&D systems, 658-FR-050) (human) (UniProt P11362); assay: ELISA: FGFR1-Fc coated at 0.5 ug/ml, FGF sample at 80 ng/ml, biotinylated anti-FGF antibody BAM233 and streptavidin-HRP, blank subtracted; sample kept 6 h at 37 C
[4] = molecular target: Recombinant Human FGFR1 alpha (IIIc) Fc Chimera Protein (R&D systems, 658-FR-050) (human) (UniProt P11362); assay: ELISA: FGFR1-Fc coated at 0.5 ug/ml, FGF sample at 80 ng/ml, biotinylated anti-FGF antibody BAM233 and streptavidin-HRP, blank subtracted; sample kept 48 h at 37 C

Sequence of Recombinant Human FGFR1 alpha (IIIc) Fc Chimera Protein (R&D systems, 658-FR-050) (human) (P11362 22-376, change not shown): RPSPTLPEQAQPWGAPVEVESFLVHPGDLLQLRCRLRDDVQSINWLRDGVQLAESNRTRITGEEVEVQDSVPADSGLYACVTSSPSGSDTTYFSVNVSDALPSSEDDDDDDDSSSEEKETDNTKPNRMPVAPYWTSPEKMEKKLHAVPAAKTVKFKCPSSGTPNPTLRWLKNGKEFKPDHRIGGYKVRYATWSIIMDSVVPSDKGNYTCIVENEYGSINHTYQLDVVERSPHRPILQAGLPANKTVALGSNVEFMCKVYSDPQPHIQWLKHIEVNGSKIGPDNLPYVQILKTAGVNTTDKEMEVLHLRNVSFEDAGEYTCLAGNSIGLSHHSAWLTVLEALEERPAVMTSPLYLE

Absorbance (450 nm) (absorbance (450 nm)) [1]: 0.7
Absorbance (450 nm) (absorbance (450 nm)) [2]: 2.1
Absorbance (450 nm) (absorbance (450 nm)) [3]: 0.9
Absorbance (450 nm) (absorbance (450 nm)) [4]: 0.6
B1: FGF320 (FGF1 + FGF2-CHIMERA_Pig) (ligand)
chain: MANYKKPKLLYCSNGGHFLRIHPDGRVDGVREKSDPHIKLQLQAEERGVVSIKGVCANRYLAMDTSGLLYGSQTPSEECLFLERLEENHYNTYTSKKHAEKNWFVGLKKNGSCKRGPRTHYGQKAILFLPLPV

Absorbance (450 nm) (absorbance (450 nm)) [1]: 2.3
Absorbance (450 nm) (absorbance (450 nm)) [2]: 2.5
Absorbance (450 nm) (absorbance (450 nm)) [3]: 2.4
Absorbance (450 nm) (absorbance (450 nm)) [4]: 2.3
B2: FGF323 (FGF1 + FGF2-CHIMERA_Pig_C12S; Q43I; A62C; H89G; C113A) (ligand)
chain: B1 chain with C12S, Q43I, A62C, H89G, C113A
